A short description of this data set: label from the status in PepcDB records.
On to “MTKQFHCVTVGNPNAGKSTLFNALTGANQQVGNWSGVTVEKKTGHFTLNGADVYLTDLPGIYDLLPAGNSCDCSLDEQIAQQYLAEQRVDGIINLVDATNIERHLYLTAQLRELSIPMVVVLNKIDAAIKRGICVDLTKMSQELGCPVIGVCSRDPADVAKVQAQVLDLLQGRVSEAPLLLDYDKQIEAGVQLLCRKDPNLSRGRALAMLGNGSGCGSCKNAQLQDEVNTCTQQIAQQGHDIEVMVATTRFNFVERVFQSSVKADGFLTLSDKLDKLVLHPVLGIPVFLFVMYLMFMFSINIGSAFIDFFDVFAGALLVDHFGALLTNIGAPAWVVTILAGGVGQGIQTVSTFIPVIAALFLGLSILESSGYMARAAFVVDGLMRRIGLPGKAFVPMIVGFGCSVPAIMATRTLGSERERIVTGMMAPFMSCGARLPVYALFAAAFFPDSGQNLVFLLYVIGIFAAIGTGLLLRSTLLPGTSSAVVMELPSYELPKFKAVMVRTGKRTKSFILGAGKTIVLVVTLLNFINAIGVDGSFGHEDSQASLLSVASQKVTPIFAPMGIEQDNWPATVGIITGIFAKEAVVGTLNSLYTNATPEGSELTPLADSFNEALATIPANLFGLDLEDPLKLSVGDVSNTEVAAETQGVATSTFSALQSGFTTKVAAFSYLLFILLYTPCVAAMGALVNEFGTRWATFAATWTFALAYGSATVVYQAATFAAHPLQSSLWIGFFLVALVMFYLWLKRKGRRTQQIIPGVRIITE”, for which the protein production entry is “failed”.

For the sequence “MDELAGGGGGGQGMAAPPRPQQGPGGNLSLPPGANGAPGGGGPPAAEAAGPPAGPELSRPQQYTIPGILHYIQHEWARFEMERAHWEVERAELQARIAFLQGERKGQENLKKDLVRRIKMLEYALKQERAKYHKLKYGTELNQGDLKMPTFESEETKDVEAPPAPQNSQLTWKQGRQLLRQYLQEVGYTDTILDVRSQRVRSLLGLSNSEPNGSVEAKNLEQILNGGESPKQKGQEIKRPPGDVLETFNFLENADDSDEEENDMIEGIPEGKDKLRIHKHKIGNEGLAADLTDDPDTEEALKEFDFLVTAEDGEGAGEARSSGDGTEWDKDDLSPTAEVWDVDQGLISKLKEQYKKERKGKKGVKRVNRTNLCDMITDLGDDELPHIPSGIINQSRSASTRMADHEGARAEEAEPITFPSGGGKSFIMGSDDVLLSVLGLGDLADLTVTNDADYSYDLPANKDAFRKTWNPKYTLRSHFDGVRALAFHPVEPVLVTASEDHTLKLWNLQKTVPAKKSASLDVEPIYTFRAHIGPVLSLAISSNGEQCFSGGIDATIQWWNMPSPNVDPYDTYESNVLAGTLVAHTDAVWGLAYSGIKNQLLSCSADGTIRLWNPQEKLPCVCTYNGDKEHGIPTSVDFIGCDPAHMVTSFNTGSAVIYDLETSQSLVMLSSQVDSGLQSSNHINRVVSHPTLPVTITAHEDRHIKFFDNKTGKMIHSMVAHLDAVTSLAVDPNGIYLMSGSHDCSIRLWNLDSKTCVQEITAHRKKLDESIYDVAFHPSKAYIASAGADALAKVFV”, the protein production result is reported as “failed”.

As for “MMSRKRWLALIAAAMLFVASAAISLVSSPAVDVDEWVGTGTSYKQTIVETGTDFGKSIAILELSGVIQDTGSAPSLLNTGVYHHRDFLKQLEKAGEDPNIAGIILQVNTPGGGVLESAEIHKQVEEIVQDSEKPVYVSMGNMAASGGYYISAPATKIYAHPQTITGSIGVIMQSIDISGLAENLGIEFNTFKSGPYKDILSQTREVTDEEEDILQTLVDEMYDEFVRVIVDGRGMSETEVRELADGRIYTGSQAVATGLVDELGGLDDVIESMKEDLGADYNVIRYEHSLGLYDFFSMSTNRLLSPSYELQSIERLLNQSNTPTLQYLYAELEHHHHHH”, the protein production entry is given as “not failed”.

In the case of “MKVALGGTFEPLHEGHKKLIDVAIKLGGRDITIGVTSDRMARARIRSVLPFAIRAENVKRYVMRKYGFEPEIVKITNPYGKTLDVDFEYLVVSPETYEMALKINQKREELGKRKITIVKVDWMMAEDGKPISSTRIKRGEID”, the protein production entry is “not failed”.

As to “MKNAFLYFLLYYRMLTTYYEWFVIVCFPQIRKICCYNEDTKTNAMEAIMKKLIGIATAAVFGLGIFTSSANAETVVTTDVLNVRENPTTESKVVGKLLNGNKIDVQNTENGWSKITLDGKDAFVSAEFTKSIYYVTANVLNVRAEANTNSEILGTLKKDDMIETTNQVQNEWLQFEYNGKTAYVHVPFLTGTAPVIEKQEQPAPAKAQAPAQAPAAQAKQAAKPAVKAAETNTPSGGRELTVVATAYTAHPSENGGTYGGRVLTAMGHDLTANPNMKMIAVDPKVIPLGSKVWVEGYGEAIAGDTGGAIKGNRIDILLGSDSAAQKWGRKTVKVKILK”, the protein production result was “failed”.

On to “MNKRPARPTRSRRRISVAPATRQLRNARQMMADDIAVARAVERGELETEEHPTHGATNAEKAAESGLQPQPSDHEKAEVATSKHGLPKLTIVLLTVAAAWLGLSFLHELSSVVAPLFFGLNLLITAYPIHTWLVKHKCPRWISATTAGTAVIVVLAAGVVGMVWSVAAMINQLQSYIPQMEKIYTQLLHWSTQLGYSQDVIADKLKKIDPQQVMSVVTSVASDTTSVVTMIIVILTGMIFMVMDTPQMHDRLRMAGSRKPDVVLALESFASGIRKYWLVTTVFGLIVALFDWAALLIIGVPLAGVWALFSFLTNYIPNIGFIIGVIPPALLALFKDGWVAAVAVVVSYSVLNFVIQSIIQPKFAGDAVGLTPTMSFVSLLLWGWVFGALGTLIALPCSLLVKATLIDHDPGARWVNALISSRPTEGLEDNPDE”, for which the protein production result is given as “failed”.

“EQLPVLQTVPFAGSAEPVSLTRESVERSVGEANMQEQRKRVHAMLRDYELQLRINSDASQQDAHLTPDSE”: the protein production entry is listed as “not failed”.

Turning to “YTFIGNSPVPKSYSLSEMRDAFIKFFEKRGHKFLKPYPVVPRWREDVLLVNASIYDFQPHVTSGIVRPPGNPIVMSQPSIRMNDVDLVGITGRHLTSFEMLCHDSFNTKDKTVYWKEETVHYCYDFLTEGLGIDGKLISFKEKPWSGGGNAGNALEVFVRGLEVATLVFMDMKEDPNGPYEIDGIRYSKMDMRIVDTGYGLERLTWLSQGTPTVYQAIYPDIIQHVMKNSSVSDIDEEFLSEVVKASVMKEP”, the protein production entry was “failed”.

In the case of “MRIYRTLTTYIARTYLTALVGATLVVGALLMLFDVIEITRRSGSKAIGIDVVLEMALYHLPMSLQSALPFVFMGGAVMIFWKLARSSELVVIRAAGLSVWQFLAPVIAVVVVLGIANVTLLNPLAAHLYTKYERMDAGMDSGVANPLALSDGGLWLRENNPEGQVVMHAQGVRQVDNALRMTGVTIFRYGPDRRFESRIDAETAGLREGALVLTSVVTTYPGRVGERAETLEVPSNLTLPKIQDSFSPPETVSFWELPAFITFFEAAGFSAHAHRLHWHSLIASPLLLIAMVLMGAVFSLKPSQRSVNWLFRIVGAVAAGFGVFFFSKITYTLGLSQTLPVNLAAWSPALVTTMVALAALFHLEDG”, the protein production result is recorded as “failed”.

Take “DQHRPATLEALLAGVSLLLPMLDAIPNAAIFIKDSAARYALANNTLVQRCGLKRLQPLLGKTSAEVFPAQFGPGYTEQDRRVLKEGLVLEDQLELHLYGSREPGWCLTHKRPLYNPAGEIIGLVGISVDLQSAADSHP”: the protein production result is given as “failed”.

For “MAVEEVIEMQGLSLDPTSHRVMAGEEPLEMGPTEFKLLHFFMTHPERVYSREQLLNHVWGTNVYVEDRTVDVHIRRLRKALEPGGHDRMVQTVRGTGYRFSTRF”, the protein production result is given as “not failed”.

With “MNVMRHSWLAVAGIAGLLAFPPVDACTLWGAAGTASMEGSLLAKNRDWKPDHAQSLRLLHPEHGYAYLGLYADNGSEPGIKAGVNQKGLAVVAAEASSLPRALRADSARHGVLTRLLRDYGSLDEVASAADKLFAQARPVFLLLADAGGLMQVEIGQHGRYRLIRQQSGTLAHTNHYADTSLLDGAQTIGPSSQARLERIRFLLDQHPAHTLSEFERLSRDRHDGPDNSLWRSGREHTLAGWRIALPAGAPPRLQLTLANPGRAERDGDYALDSAFWAQPARTLLPLEHHHHHH”, the protein production result is listed as “not failed”.

Take “MKIQDYTKQMVDEKSFIDMAYTLLNDKGETMNLYDIIDEFRALGDYEYEEIENRVVQFYTDLNTDGRFLNVGENLWGLRDWYSVDDIEEKIAPTIQKFDILDADDEEDQNLKLLGEDEMDDDDDIPAQTDDQEELNDPEDEQVEEEINHSDIVIEEDEDELDEDEEVFEDEEDFND”: the protein production result is reported as “not failed”.

Take “MTEDERFAWLQLAFTPYIGAESFLLLMRSFGSAQNALSAPAEQVAPAVRHKHALEAWRNAEKRALARQAAEAALEWEMRDGCRLMLLQDEDFPEMLTQGLTAPPVLFLRGNVRLLHKPSAAIVGSRHATPQAMRIAKDFGRALGGKGIPTVSGMASGIDTAAHQGALEAEGGTVAVWGTGIDRIYPPANKNLAYEIAEKGLIVSEFPIGTRPYAGNFPRRNRLIAALSQVTLVVEAALESGSLITAGLAAEMGREVMAVPGSIDNPHSKGCHKLIKDGAKLTECLDDILNECPGLLQNTGASSYSINKDTPDTGRRAVQTAYAPPPAAKMPSEGAAGGTAVGGILDKMGFDPVHPDVLAGQLAMPAADLYAALLELELDGSVAAMPGGRYQRIRT”: the protein production result is “failed”.

As to “MKTDFSLTQLADPDIAEADKILRACVHCGFCTATCPTYVLLGDELDSPRGRIYLIKEMLESDKPPTADVVKHIDRCLSCLACMTTCPSGVNYMHLVDQARVRIEKQYQRPFWDRVVREALSWMMPHPGMFRLGMWAARIVRPVAALLPGSHNLTHPTLLSRIKAMLALAPKHLPEPGPDSGTTFPAVGPKRGRVALLHGCAQQVLAPRINRAAINLLTRHGIEVVLAADEACCGALIHHLGRDTRTLEYARTNIKAWLAEIERGGLDAILVTTSGCGTVIKDYGYMLREDPEYAAAAAKVSALAKDISEYVSGLELSLPRPHDDVVVAYHSACSLQHGQKITQIPKELLSKTGFVVKDIPESHLCCGSAGTYNILQPDIATRLRDRKVANIASVKPDMIAAGNIGCMVQIASGTEVPVVHTIELLDWATGGPRPAPH”, the protein production result is “failed”.

As for “MPIPQATADAFCALTGDDQWIHIDPARAEAEGLAGGDTVLPGALLLSLAVGGLGKALGYPEGTRSWQRSYERVRFLRPAPVGSRLRLEARESRRRPAGTGREVVVANVSLYSDLVEAGPVMEGCFTSLLEVAVQPLEHHHHHH”, the protein production entry is “failed”.

For “MTNNQKLVGRHKRLAFMKVGTEGTYDRITGFTSLIEGKEAKEYARQYIDEATERTDVVGYATGIEYAFDRYTNNAVHEKIANITDDELLGVDAQVEIVSVDVFEEKAGGKYPARKRTYSVVPDTTGDGTDALIYSGNFKAVSEIVKGYCTTTDKWQTCTFVEGEIPAEALEHHHHHH”, the protein production result is “not failed”.

Turning to “MIELDYLTIAFGGAIGAVLRYLVSRTINSLLPFSYIPLGTIIVNSVGSFFLSFLMFAAIEKVPLSKEAILFFGTGLLGAFTTFSTFTYETLSLIEESPARGVAYALANLLFAFTCAYFGMILGRGKV”, the protein production entry is on record as “failed”.

The values above are taken from a protein production outcome set (Wang et al. 2014).
